Test results reported in US20250263440A1, “CD38-BINDING AGENTS AND USES THEREOF” (PeptiDream Inc., priority 2019, published 2025).
Where two headings read alike, the source gives them in different places. Positions of bridges follow the written chain, without caps; N, C: chain ends. Non-standard residues stand in square brackets, D forms with d. No end group written: not given here. Bip = N[C@@H](Cc1ccc(-c2ccccc2)cc1)C(=O)O; Ahp(2) = CCCCC[C@H](N)C(=O)O

Experiments:
[1] = molecular target: T1, Recombinant human CD38 protein (R&D Systems) (human, UniProt P28907 43-300); experiment: SPR (Biacore T200), single-cycle kinetics, CD38 immobilised on CM3 chip, 1:1 Binding model, 25 °C; figure legend names I-2 and the panel matches Table 4 (3.5*10^-8, rounded there)
Experimental: (§1) One of many useful technology for assessing CD38 binding is surface plasmon resonance (SPR). […] After the equilibration of Series S Sensor Chip CM3 (produced by cytiva: Former GE Healthcare) with Running Buffer (HBS-EP with 1% (v/v) DMSO), an EDC/NHS mixture was injected at a flow rate of […] for 4 minutes to thereby activate the functional groups on sensor chip. CD38 in 10 mM Acetate (pH5.5) was injected immobilized to at a flow rate of 5 L/min. For 4 minutes to immobilize the CD38 on the substrate surfaces of the sensor chip. Then Ethanolamine was injected at a flow rate of […] for 4 minutes. 1.0 M Ethanolamine (aq.) was injected at a flow rate of […] for 420 seconds for capping. 10 mM Peptides in DMSO were diluted to obtain 10 uM with Running Buffer, and prepared 100 nM, 50 nM, 25 nM, 10 nM, 5 nM of each peptide solutions (Peptide Samples).
(§2) Using these Peptide Samples, kinetics of peptides against CD38 was measured. The method adopted for sample measurement was a single-cycle kinetics method. The analysis was conducted using the evaluation software provided with Biacore T200. A DMSO correction curve obtained by solvent correction measurements was applied for the analysis. […]
(§3) KD values were calculated based on the association rate constant (ka) and dissociation rate constant (kd).

[2] = molecular target: T1, Recombinant human CD38 protein (R&D …); experiment: SPR (Biacore T200), single-cycle kinetics, CD38 immobilised on CM3 chip, 1:1 Binding model, 25 °C; figure legend names I-2 and the panel matches Table 4 (1.3*10^-2, rounded there)
Experimental: as §1, §2, §3

[3] = molecular target: T1, Recombinant human CD38 protein (R&D …); experiment: ELISA
[4] = molecular target: T1, Recombinant human CD38 protein (R&D …); experiment: SPR (Biacore T200), CD38 immobilised on CM3 chip, single-cycle kinetics
Experimental: as §1, §2, §3

[5] = molecular target: T1, Recombinant human CD38 protein (R&D …); experiment: SPR (Biacore T200), single-cycle kinetics, CD38 immobilised on CM3 chip, 1:1 Binding model, 25 °C; figure legend names I-2 and the panel matches Table 4 (3.6*10^5, rounded there)
Experimental: as §1, §2, §3

[6] = molecular target: T1, Recombinant human CD38 protein (R&D …); experiment: SPR (Biacore T200), single-cycle kinetics, CD38 immobilised on CM3 chip, 1:1 Binding model, 25 °C; figure legend names I-1; Table 4 prints 1.8*10^-3 for this constant
Experimental: as §1, §2, §3

[7] = molecular target: T1, Recombinant human CD38 protein (R&D …); experiment: SPR (Biacore T200), single-cycle kinetics, CD38 immobilised on CM3 chip, 1:1 Binding model, 25 °C; figure legend names I-1 and the panel matches Table 4 (2.3*10^-9, rounded there)
Experimental: as §1, §2, §3

[8] = molecular target: T1, Recombinant human CD38 protein (R&D …); experiment: SPR (Biacore T200), single-cycle kinetics, CD38 immobilised on CM3 chip, 1:1 Binding model, 25 °C; figure legend names I-1 and the panel matches Table 4 (7.7*10^5, rounded there)
Experimental: as §1, §2, §3

[9] = molecular target: T1, Recombinant human CD38 protein (R&D …); experiment: ELISA; remark: listed apart in the source

| Kd [1] [nM] | koff [2] [s⁻¹] | Binding Assay (larger values indicate stronger binding) [3] | Kd [4] [nM] | kon [5] [M⁻¹ s⁻¹] | koff [6] [s⁻¹] | Kd [7] [nM] | kon [8] [M⁻¹ s⁻¹] | Binding Assay (larger values indicate stronger binding) [9] | Binder |
| --- | --- | --- | --- | --- | --- | --- | --- | --- | --- |
| 35.4 | 0.0127 | 1.69 | 35 | 358000 | – | – | – | – | ALHXVLPXVWVC (not fully specified; MePhe (N-methyl-L-phenylalanine) at 4; Bph at 8; cyclic peptide (N-terminal ClAc-Ala cyclised with the C-terminal Cys), structure given as a drawing, Printed as Ala Leu His MePhe Val Leu Pro Bph Val Trp Val Cys) [Compound I-2 (SEQ ID NO. 2)] |
| – | – | – | 2.3 | – | 0.00175 | 2.27 | 769000 | 1.97 | {CH2CO}-AR[Ahp(2)]YHDGVL[Bip][Ahp(2)]DC (thioether N-13, Ala Arg Ahp Tyr His Asp Gly Val Leu Bph Ahp Asp Cys) [Compound I-1 (SEQ ID NO. 1)] |
